According to the RNAGym collection of RNA variant scans (doi:10.7554/elife.90254):

B1: LINE1-mini (parent)
chain: GGCAGAGCUCAACACAGCGUGGCAAAGUGGCUGUGGCUAGACUGCC

Variants of: B1
Assay: self-cleavage, relative activity (ratio to wild type); higher = more cleavage; in vitro, sequencing; the parent is a self-cleaving ribozyme

| Variant | self-cleavage |
| --- | --- |
| GGCAGAGCUCAACACAGCGUGGCAAAGUCGCUGUGGCUGGACUGCC | 0.03 |
| GGCAGAGCUCAACACAGCGUGGCAAAGUCGCUGUGGCUCGACUGCC | 0.06 |
| GGCAGAGCUCAACACAGCGUGGCAAAGUCGCUGUGGCUUGACUGCC | 0.15 |
| GGCAGAGCUCAACACAGCGUGGCAAAGUUGCUGUAGCUAGACUGCC | 0.32 |
| GGCAGAGCUCAACACAGCGUGGCAAAGUUGCUGUCGCUAGACUGCC | 0.08 |
| GGCAGAGCUCAACACAGCGUGGCAAAGUUGCUGUUGCUAGACUGCC | 0.14 |
| GGCAGAGCUCAACACAGCGUGGCAAAGUUACUGUGGCUAGACUGCC | 1.92 |
| GGCAGAGCUCAACACAGCGUGGCAAAGUUUCUGUGGCUAGACUGCC | 1.72 |
| GGCAGAGCUCAACACAGCGUGGCAAAGUUCCUGUGGCUAGACUGCC | 0.69 |
| GGCAGAGCUCAACACAGCGUGGCAAAGUCGCUUUGGCUAGACUGCC | 0.36 |
| GGCAGAGCUCAACACAGCGUGGCAAAGUCGCUCUGGCUAGACUGCC | 0.1 |
| GGCAGAGCUCAACACAGCGUGGCAAAGUCGCUAUGGCUAGACUGCC | 0.12 |
| GGCAGAGCUCAACACAGCGUGGCAAAGUCGUUGUGGCUAGACUGCC | 0.93 |
| GGCAGAGCUCAACACAGCGUGGCAAAGUCGAUGUGGCUAGACUGCC | 1.34 |
| GGCAGAGCUCAACACAGCGUGGCAAAGUCGGUGUGGCUAGACUGCC | 0.34 |
| GGCAGAGCUCAACACAGCGUGGCAAAGUCGCUGUGGCUAGACUGCC | 0.49 |
| GGCAGAGCUCAACACAGCGUGGCAAAGUUGCUGUGGCUAGACUGCC | 1.09 |
| GGCAGAGCUCAACACAGCGUGGCAAAGUCGCUGUGGCUAGACUGCG | 0.52 |
| GGCAGAGCUCAACACAGCGUGGCAAAGUCGCUGUGGCUAGACUGCA | 0.68 |

| Variant | self-cleavage |
| --- | --- |
| GGCAGAGCUCAACACAGCGUGGCAAAGUCGCUGUGGCUAGACUGCU | 0.6 |
| GGCAGAGCUCAACACAGCGUGGCAAAGUUGCCGUGGCUAGACUGCC | 0.16 |
| GGCAGAGCUCAACACAGCGUGGCAAAGUUGCAGUGGCUAGACUGCC | 0.34 |
| GGCAGAGCUCAACACAGCGUGGCAAAGUUGCGGUGGCUAGACUGCC | 0.27 |
| GGCAGAGCUCAACACAGCGUGGCAAAGUCGCUGUGGCGAGACUGCC | 0.02 |
| GGCAGAGCUCAACACAGCGUGGCAAAGUCGCUGUGGCCAGACUGCC | 0.11 |
| GGCAGAGCUCAACACAGCGUGGCAAAGUCGCUGUGGCAAGACUGCC | 0.08 |
| GGCAGAGCUCAACACAGCGUGGCAAAGUUGCUGUGUCUAGACUGCC | 0.05 |
| GGCAGAGCUCAACACAGCGUGGCAAAGUUGCUGUGACUAGACUGCC | 0.17 |
| GGCAGAGCUCAACACAGCGUGGCAAAGUUGCUGUGCCUAGACUGCC | 0.1 |
| GGCAGAGCUCAACACAGCGUGGCAAAGUUGAUGUGGCUAGACUGCC | 0.15 |
| GGCAGAGCUCAACACAGCGUGGCAAAGUUGUUGUGGCUAGACUGCC | 0.19 |
| GGCAGAGCUCAACACAGCGUGGCAAAGUUGGUGUGGCUAGACUGCC | 0.13 |
| GGCAGAGCUCAACACAGCGUGGCAAAGUAGCUGUGGCUAGACUUCC | 0.26 |
| GGCAGAGCUCAACACAGCGUGGCAAAGUUGCUUUGGCUAGACUGCC | 0.12 |
| GGCAGAGCUCAACACAGCGUGGCAAAGUUGCUAUGGCUAGACUGCC | 0.1 |
| GGCAGAGCUCAACACAGCGUGGCAAAGUUGCUCUGGCUAGACUGCC | 0.06 |
| GGCAGAGCUCAACACAGCGUGGCAAAGUUGCUGUGGCUUGACUGCC | 0.7 |
| GGCAGAGCUCAACACAGCGUGGCAAAGUUGCUGUGGCUCGACUGCC | 0.21 |

| Variant | self-cleavage |
| --- | --- |
| GGCAGAGCUCAACACAGCGUGGCAAAGUUGCUGUGGCUGGACUGCC | 0.06 |
| GGCAGAGCUCAACACAGCGUGGCAAAGUCGCUGUGGCUAGACUUCC | 0.37 |
| GGCAGAGCUCAACACAGCGUGGCAAAGUCGCUGUGGCUAGACUACC | 0.15 |
| GGCAGAGCUCAACACAGCGUGGCAAAGUCGCUGUGGCUAGACUCCC | 0.29 |
| GGCAGAGCUCAACACAGCGUGGCAAAGUUGCUGUGGCUAGACUGCU | 1.51 |
| GGCAGAGCUCAACACAGCGUGGCAAAGUUGCUGUGGCUAGACUGCG | 0.93 |
| GGCAGAGCUCAACACAGCGUGGCAAAGUUGCUGUGGCUAGACUGCA | 0.82 |
| GGCAGAGCUCAACACAGCGUGGCAAAGUUGCUGUGGCUAGUCUGCC | 0.9 |
| GGCAGAGCUCAACACAGCGUGGCAAAGUUGCUGUGGCUAGCCUGCC | 0.05 |
| GGCAGAGCUCAACACAGCGUGGCAAAGUUGCUGUGGCUAGGCUGCC | 0.41 |
| GGCAGAGCUCAACACAGCGUGGCAAAGUUGCUGUGGCAAGACUGCC | 0.4 |
| GGCAGAGCUCAACACAGCGUGGCAAAGUUGCUGUGGAUAGACUGCC | 0.13 |
| GGCAGAGCUCAACACAGCGUGGCAAAGUUGCUGUGGUUAGACUGCC | 0.05 |
| GGCAGAGCUCAACACAGCGUGGCAAAGUUGCUGUGGGUAGACUGCC | 0.04 |
| GGCAGAGCUCAACACAGCGUGGCAAAGUCGCUGUGCCUAGACUGCC | 0.05 |
| GGCAGAGCUCAACACAGCGUGGCAAAGUCGCUGUGUCUAGACUGCC | 0.04 |
| GGCAGAGCUCAACACAGCGUGGCAAAGUCGCUGUGACUAGACUGCC | 0.02 |
| GGCAGAGCUCAACACAGCGUGGCAAAGUCGCUGUGGCUAGAUUGCC | 0.22 |
